Assay results taken from patent US20070089183A1, “Size and/or growth engineering by modulation of the interaction between calmodulin, and brassinosteroid biosynthetic enzymes and orthologs therof” (Washington State University, priority 2005, published 2007).
Residue numbers refer to the chain shown, from its start. Names may count otherwise.

Legend:
[1] = test system: DWF1 function (sitosterol/isofucosterol levels); assay: GC-MS sterol analysis of complemented plants; type: in vivo, Arabidopsis; details: endogenous sitosterol/isofucosterol by GC-MS, six- to seven-week-old plants
Protocol: DWF1 catalyses the conversion of isofucosterol to sitosterol and 24-methylenecholesterol to campesterol^6,7. The endogenous levels of sitosterol/isofiicosterol or campesterol/24-methylenecholesterol in wild-type, dwarf and complemented plants were analysed using gas chromatography-mass spectrometry (GC-MS) to monitor the function of the complementing DWF1, DWF1(V531D), DWF1(KYR521-523DGD) and DWF1(Δ518-539) carried in cW, cM1, cM2 and cM3 plants, respectively.
Sterol analysis. Six- to seven-week-old greenhouse-grown plants were harvested and ground into a fine powder in liquid nitrogen. Aliquots of 100 mg ground material were sponified in 1 N NaOH, 70% ethanol at 70° C. for 2 h. The sterols were extracted three times with 500 μl hexane, and the combined extracts were dried and dissolved in 100 μl of methylene chloride. GC-MS analyses were conducted on an Agilent 6890 GC system with 5973N mass selective detector. A 1 μl aliquot of methylene chloride extract containing the underivatized sterols was loaded by cool on column injection on a Zebron (Phenomenex) ZB-5 column, 30 m×0.25 mm internal diameter with 0.25 μm film thickness. Chromatography was accomplished using He as the carrier gas at a flow rate of 0.7 ml min^−1. The column oven temperature was programmed to run from 40° C. to 300° C. increased at 20° C. min^−1, with a hold for 10 min at 300° C. Identification and quantification of sterols was accomplished by comparison to authentic standards based on the retention time, peak area and mass fragmentation pattern.

dwf1 null mutant = assay: complementation of dwf1 null mutant, plant phenotype; type: in vivo, Arabidopsis; details: for phenotype rescue of dwf1 mutant: 35S promoter-driven construct in homozygous dwf1 knockout
Text: To circumvent the infertility problem associated with homozygous dwf1 mutants^6,7, a heterozygous dwf1 line (SALK—006932, ref. 23) was chosen for transformation. A T-DNA insert is shown in FIG. 6, panel A, and detailed characterizations confirmed that it is a heterozygous dwf1 null mutation line (FIG. 2a, b).
Specifically, heterozygous SALK—006932 plants were transformed with a 35S::DWF1 construct (FIG. 6, panel B). […] Using polymerase chain reaction (PCR) analysis, one dwarf and seven normal plants were identified that carried at least one copy of the 35S::DWF1 complementary construct and were homozygous knockout at the endogenous DWF1 loci. The dwarfism in the dwarf plant was confirmed to be caused by a failure in expression of the transgene (FIG. 2c, d). The overexpressed (numbers 1, 2, 3, 8) and equally expressed (numbers 5, 7) lines grew like the wild-type, confirming a previous report^6. […] At the adult stage, 7 out of the 8 complemented lines reached similar levels of height and fertility as that of wild-type plants (FIG. 3c).
Mutants. Three mutants were produced to disrupt the conserved secondary structure of the CaMBD of DWF1 (FIG. 6, Panel B): V531D (M1), aimed at disturbing the hydrophobic surface; KYR521-523DGD (M2, K521, Y522 and R523 are changed to D521, G522 and D523), aimed at changing the net surface charges; and Δ518-539 (M3), a total deletion of the CaMBD. […] A similar strategy was used to deliver the mutant dwf1 complimentary constructs (FIG. 6, Panel B) into the heterozygous dwf1 plants. Visual checks identified 18, 11 and 19 dwarf plants in the T1 population carrying 35S::DWF1(V531D), 35S::DWF1(KYR521-523DGD) and 35S::DWF1(Δ518-539) complimentary constructs, respectively. These plants were confirmed to carry at least one copy of the transgene and the homozygous knockout at the endogenous DWF1 loci.
To ensure a reliable comparison of the complementary effects of normal DWF1 and the three mutants, T2 plants with similar expression levels were compared (FIG. 3b-d). […] Seeds were produced in most of the slightly shorter siliques of cM1 plants (FIG. 3b, c). […] The dwarf phenotypes of cM1, cM2, cM3 and the dwf1 mutant were rescued by exogenous application of brassinolide (data not shown).

35S-CaM = assay: 35S-CaM-binding assay; details: purified recombinant protein covering amino acid 517 to the stop codon, 2 μg per lane
Protocol: Total proteins from E. coli expressing pScreen-1b (lane 1) or expressing pScreen-1b-517-561 (lane 2) were stained (left panel) or bound to ^35S-CaM in the presence of Ca^2+ (middle panel) or EGTA (right panel), a Ca^2+ chelator. […] Total proteins from plants expressing the Flag-tagged DWF1 (DWF1-Flag) or wild-type plants (WT) were incubated with antibodies against full-length human CaM1 (anti-CaM1), AtBET10 (anti-AtBET10) or non-immune serum (Non-im.); immunocomplexes were separated on SDS-PAGE and detected with anti-Flag M2 monoclonal antibody. […] Total proteins from E. coli expressing pET32b (lane 1), pET32b-1-349 (lane 2), pET32b-348-518 (lane 3), pScreen-1b (lane 4) or pScreen-1b-517-561 (lane 5) were stained (left) or were bound to ^35S-CaM (right). […] CaM and the peptide-CaM complex is indicated.
To confirm further the CaM-binding ability of DWF1, the positive clone from the library screening was expressed in Escherichia coli and tested for ^35S-CaM binding^15 in the presence of Ca^2+, EGTA, a Ca^2+ chelator, or Mg^2+. […] C-terminal Flag-tagged DWF1 overexpression lines of Arabidopsis were produced to study the DWF1-CAM interaction in vivo. Because of the dynamic nature of the interaction between DWF1 and Ca^2+/CaM, co-immunoprecipitation using a prior in vivo crosslinking strategy^16 was adapted to verify their interaction under physiological conditions.
The CaMBD is typically comprised of a stretch of 12-30 contiguous amino acids that contain a positive net charge and have a propensity to form an amphiphilic α-helix^4. […] A peptide corresponding to 518-539 was synthesized, and its CaM-binding ability was confirmed using PCM6 (ref. 17) in a gel mobility shift assay^15 (FIG. 1e).
Mutants. Three mutants were produced to disrupt the conserved secondary structure of the CaMBD of DWF1 (FIG. 6, Panel B): V531D (M1), aimed at disturbing the hydrophobic surface; KYR521-523DGD (M2, K521, Y522 and R523 are changed to D521, G522 and D523), aimed at changing the net surface charges; and Δ518-539 (M3), a total deletion of the CaMBD. […]

Ca^2+/CaM = assay: gel mobility shift assay of BR biosynthetic proteins; type: binding, potato; details: FIG. 5
Text: PCM1: potato calmodulin 1; PCM6: potato calmodulin 6. Sequences of respective CaMBD are also shown: N-DWF4 (SEQ ID NO:18); C-DWF4 (SEQ ID NO:19); CPD (SEQ ID NO:17); and DWF5 (SEQ ID NO:20).
DWF1Ca^2+ is an important second messenger and an integral part of the cellular signalling system in plants^5,29. Applicants were thus prompted to survey the CaM-binding properties of other proteins involved in brassinosteroid biosynthesis.

B1: DWF1: wild-type Arabidopsis DWARF1 (At3g19820), expressed from 35S::DWF1 in cW plants (protein, listed as Arabidopsis thaliana)
chain: MSDLQTPLVRPKRKKTWVDYFVKFRWIIVIFIVLPFSATFYFLIYLGDMWSESKSFEKRQKEHDENVKKVIKRLKGRDASKDGLVCTARKPWIAVGMRNVDYKRARHFEVDLGEFRNILEINKEKMTARVEPLVNMGQISRATVPMNLSLAVVAELDDLTVGGLINGYGIEGSSHIYGLFADTVEAYEIVLAGGELVRATRDNEYSDLYYAIPWSQGTLGLLVAAEIRLIKVKEYMRLTYIPVKGDLQALAQGYIDSFAPKDGDKSKIPDFVEGMVYNPTEGVMMVGTYASKEEAKKKGNKINNVGWWFKPWFYQHAQTALKKGQFVEYIPTREYYHRHTRCLYWEGKLILPFGDQFWFRYLLGWLMPPKVSLLKATQGEAIRNYYHDMHVIQDMLVPLYKVGDALEWVHREMEVYPIWLCPHKLFKQPIKGQIYPEPGFEYENRQGDTEDAQMYTDVGVYYAPGCVLRGEEFDGSEAVRRMEKWLIENHGFQPQYAVSELDEKSFWRMFNGELYEECRKKYRAIGTFMSVYYKSKKGRKTEKEVREAEQAHLETAYAEAD
- recovery of DWF1 function [1]: recovered to a level comparable to that in wild-type plants
- phenotype rescue of dwf1 mutant (dwf1 null mutant): completely rescue

B2: V531D: Arabidopsis thaliana DWF1 protein V531D mutant, disturbing the hydrophobic surface of the CaMBD (protein, listed as Arabidopsis thaliana)
chain: B1 chain with V531D
- recovery of DWF1 function [1]: restored to some extent
- CaM-binding ability (35S-CaM): markedly decreased
- phenotype rescue of dwf1 mutant (dwf1 null mutant): some degree of phenotype rescue
- height of flowering stems relative to the wild-type plant (dwf1 null mutant; T2 plants with similar expression levels): up to 40%

B3: KYR52-5231DGD: Arabidopsis thaliana DWF1 protein K521D, Y522G, R523D triple mutant (protein, listed as Arabidopsis thaliana)
chain: B1 chain with K521D, Y522G, R523D
- recovery of DWF1 function [1]: almost non-existent
- CaM-binding ability (35S-CaM): undetectable
- phenotype rescue of dwf1 mutant (dwf1 null mutant): very slight phenotypic rescue

B4: Δ518-539: Arabidopsis thaliana DWF1 protein Δ518-539 mutant, a total deletion of the CaMBD (protein, listed as Arabidopsis thaliana)
chain: MSDLQTPLVRPKRKKTWVDYFVKFRWIIVIFIVLPFSATFYFLIYLGDMWSESKSFEKRQKEHDENVKKVIKRLKGRDASKDGLVCTARKPWIAVGMRNVDYKRARHFEVDLGEFRNILEINKEKMTARVEPLVNMGQISRATVPMNLSLAVVAELDDLTVGGLINGYGIEGSSHIYGLFADTVEAYEIVLAGGELVRATRDNEYSDLYYAIPWSQGTLGLLVAAEIRLIKVKEYMRLTYIPVKGDLQALAQGYIDSFAPKDGDKSKIPDFVEGMVYNPTEGVMMVGTYASKEEAKKKGNKINNVGWWFKPWFYQHAQTALKKGQFVEYIPTREYYHRHTRCLYWEGKLILPFGDQFWFRYLLGWLMPPKVSLLKATQGEAIRNYYHDMHVIQDMLVPLYKVGDALEWVHREMEVYPIWLCPHKLFKQPIKGQIYPEPGFEYENRQGDTEDAQMYTDVGVYYAPGCVLRGEEFDGSEAVRRMEKWLIENHGFQPQYAVSELDEKSFWRMFNGELYEEKTEKEVREAEQAHLETAYAEAD
- recovery of DWF1 function [1]: almost non-existent
- CaM-binding ability (35S-CaM): undetectable
- phenotype rescue of dwf1 mutant (dwf1 null mutant): grew like the uncomplemented dwf1 mutants

B5: DWF4: Arabidopsis brassinosteroid biosynthetic enzyme DWF4 (AT3G50660) (protein, listed as Arabidopsis thaliana)
chain: MFETEHHTLLPLLLLPSLLSLLLFLILLKRRNRKTRFNLPPGKSGWPFLGETIGYLKPYTATTLGDFMQQHVSKYGKIYRSNLFGEPTIVSADAGLNRFILQNEGRLFECSYPRSIGGILGKWSMLVLVGDMHRDMRSISLNFLSHARLRTILLKDVERHTLFVLDSWQQNSIFSAQDEAKKFTFNLMAKHIMSMDPGEEETEQLKKEYVTFMKGVVSAPLNLPGTAYHKALQSRATILKFIERKMEERKLDIKEEDQEEEEVKTEDEAEMSKSDHVRKQRTDDDLLGWVLKHSNLSTEQILDLILSLLFAGHETSSVAIALAIFFLQACPKAVEELREEHLEIARAKKELGESELNWDDYKKMDFTQCVINETLRLGNVVRFLHRKALKDVRYKGYDIPSGWKVLPVISAVHLDNSRYDQPNLFNPWRWQQQNNGASSSGSGSFSTWGNNYMPFGGGPRLCAGSELAKLEMAVFIHHLVLKFNWELAEDDQPFAFPFVDFPNGLPIRVSRIL
- Ca^2+/CaM binding (Ca^2+/CaM): Ca^2+/CaM-binding proteins

B6: DWF5: Arabidopsis DWF5 (AT1G50430), sterol Δ7 reductase (protein, listed as Arabidopsis thaliana)
chain: MAETVHSPIVTYASMLSLLAFCPPFVILLWYTMVHQDGSVTQTFGFFWENGVQGLINIWPRPTLIAWKIIFCYGAFEAILQLLLPGKRVEGPISPAGNRPVYKANGLAAYFVTLATYLGLWWFGIFNPAIVYDHLGEIFSALIFGSFIFCVLLYIKGHVAPSSSDSGSCGNLIIDFYWGMELYPRIGKSFDIKVFTNCRFGMMSWAVLAVTYCIKQYEINGKVSDSMLVNTILMLVYVTKFFWWEAGYWNTMDIAHDRAGFYICWGCLVWVPSVYTSPGMYLVNHPVELGTQLAIYILVAGILCIYINYDCDRQRQEFRRTNGKCLVWGRAPSKIVASYTTTSGETKTSLLLTSGWWGLARHFHYVPEILSAFFWTVPALFDNFLAYFYVIFLTLLLFDRAKRDDDRCRSKYGKYWKLYCEKVKYRIIPGIY
- Ca^2+/CaM binding (Ca^2+/CaM): Ca^2+/CaM-binding proteins
